Paper PMC5768801, “The PII signaling protein from red algae represents an evolutionary link between cyanobacterial and Chloroplastida PII proteins” (Scientific Reports, 2018)

Experiments:
ScNAGK = biological target: T1, ScNAGK (Synechocystis sp., UniProt P73326); experiment: Coupled NAGK activity assay, ScNAGK; format: biochemical, Synechocystis sp. PCC 6803
T1 sequence (P73326 1-297): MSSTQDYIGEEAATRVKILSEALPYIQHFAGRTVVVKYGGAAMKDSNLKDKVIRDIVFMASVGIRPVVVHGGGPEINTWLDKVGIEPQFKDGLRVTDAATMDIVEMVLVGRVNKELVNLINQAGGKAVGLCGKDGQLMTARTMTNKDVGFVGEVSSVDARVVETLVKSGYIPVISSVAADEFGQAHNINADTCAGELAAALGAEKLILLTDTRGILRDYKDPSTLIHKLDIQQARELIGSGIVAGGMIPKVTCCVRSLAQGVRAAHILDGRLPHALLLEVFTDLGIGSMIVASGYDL
Description: The assess the activity of ScNAGK was measured with an enzyme assay, in which the ADP production was coupled to the NADH oxidation by the auxiliary enzymes pyruvate kinase and lactate dehydrogenase according to previously described procedure[32],[50]. […] The oxidation reaction of NADH was recorded for 10 min using spectrophotometer (SPECORD 210 PLUS, Analytik Jena AG) at 340 nm. […] The NADH molar absorption coefficient is 6178 L mol^−1 cm^−1 for at 340 nm, which was used for calculation. […] From the velocity slopes, the enzymatic constants Km, Kcat and IC50 were calculated using the Graph-Pad Prism software (GraphPad Software, USA).

PipX = experiment: Pull-down analysis of PipX binding to PII proteins; design: species or system Synechocystis sp. PCC 6803; settings: 10 µM proteins, 1 mM ADP, Strep-Tactin column, Tricine-SDS-PAGE
Text: In cyanobacteria, PipX is the second known receptor of PII signaling. We questioned whether red algal PII proteins have lost or retained the ability to bind to PipX. To test this possibility, we first analyzed complex formation using pull-down experiments (Supplementary Fig. S3A and B). The PII protein from Synechocystis sp. PCC 6803 (ScPII) was mixed with PipX in the presence of ADP and then the Strep-tagged PII was immobilized on the Strep-Tactin II column (Supplementary Fig. S3A). After extensive washes, the proteins were eluted with desthiobiotin and analyzed by Tricine-SDS-PAGE. Both proteins were detected in the elution. Thus, confirming previous studies[16]–[18], cyanobacterial PII was bound to PipX. When PpPII in the presence of PipX was immobilized on the column, no PipX signal was detected in the elution (Supplementary Fig. S3B).
For complex formation, the binding reactions were done in 300 μl of buffer (100 mM Tris HCl, pH 8.0, 150 mM NaCl, 1 mM EDTA) by adding 10 µM of purified proteins: His6-ScPipX and Strep-tag ScPII or Strep-tag PpPII. […] The eluted fractions were analyzed by Tricine-SDS PAGE[51] and stained with SimplyBlue™ SafeStain (Invitrogen).
(§1) Figure S3. […] Complex formation between PipX and ScPII (A) or PpPII (B) was assessed by pull-down. […] (C) Complex formation between PipX and PII proteins was assessed by SPR. […]

ScPipX = experiment: SPR analysis of PipX binding to PII proteins; design: species or system Synechocystis sp. PCC 6803; settings: His-tagged ScPipX immobilized, 200 nM PII protein, ADP
Description: Additionally, we assessed whether PpPII could bind to PipX by surface plasmon resonance (SPR) spectroscopy (Supplementary Fig. S3C). The N-terminally His-tagged ScPipX was immobilized on a Ni-HTG sensor chip and probed with ScPII together with effector molecule ADP. Interaction between PpPII and PipX was not observed.
SPR experiments were conducted using a ProteOn XPR36 system (Bio-Rad) in HBS buffer (10 mM HEPES, 150 mM NaCl, 1 mM MgCl2, and 0.005% Tween 20, pH 7.5) at 25 °C. Immobilization of ligand, 1 µM His6-PipX (200 µl), was performed on a Ni^+-loaded HTG sensor chip (Bio-Rad Laboratories) in the vertical orientation into the channel L2, and the continuous running buffer was used at a flow rate of 30 µl/min. The immobilization level was approximately 3000 resonance units (RU). […] The binding of PII proteins to PipX was recorded as a response signal difference of L2 and L1. All binding sensorgrams were collected, processed and analyzed using the integrated ProteOn Manager software (Bio-Rad Laboratories).
as §1

B1: PpPII: PII from the red alga Porphyra purpurea, recombinant Strep-tagged or His-tagged protein (protein)
chain: MKKIEAIIRPFKLNEVKLALVKGGIGGMTVVKVSGFGRQKGQTERYKGSEYSIDIIDKIKIEIIVSDDKVNSITEIIIKTAKTGEIGDGKIFISDVEQVIRIRTNDLNSAAL
modifications: left off: Strep-tag II, C-terminal, kept
notes: PII from the red alga Porphyra purpurea, recombinant Strep-tagged or His-tagged protein
raise of the IC50 for arginine on addition of PpPII to ScNAGK (ScNAGK; 50 mM NAG, 10 mM ATP, without glutamine): approximately 4 fold | increase of the overall NAGK catalytic efficiency by complex formation with PpPII (ScNAGK; PpPII-complexed versus free ScNAGK): about 4 fold | complex formation with PipX (pull-down) (PipX): did not interact with PipX | interaction with PipX (SPR) (ScPipX): not observed
